The target of experiment [1] is RBD-SD1 (SARS-CoV-2), P0DTC2. The experiment is described as follows: epitope analysis, FIG. 3B; exponent as printed. The settings on record: remark: other sources report otherwise.
The target in experiment [2] is RBD-SD1 (SARS-CoV-2), P0DTC2. Particulars: remark: other sources report otherwise.

Like-named read-outs stand apart in the source and are kept apart here.

B1: N-612-004 (antibody, V domains shown)
VH: EVQLVESGGGLVQPGGSLRLSCAASGFTFSSYYMHWVRQAPGKGLEWVSAISGSGGYTYYADSVKGRFTISRDNSKNTLYLQMNSLRAEDTAVYYCARDRDHAYDWGFDVWGQGTLVTVSS
VL: DIQMTQSPSSLSASVGDRVTITCQASQDISNYLNWYQQKPGKAPKLLIYDASNLETGVPSRFSGSGSGTDFTFTISSLQPEDIATYYCQQWADWPLTFGQGTKVEIK
Turning to B1, the dissociation rate constant (koff) (commonly a measure of how fast the partners let go of each other) in experiment [1] amounted to 0.00034 s⁻¹. Moreover, in experiment [2], the Kd (commonly the constant that tells how readily two partners part at equilibrium) was 2.95 nM; the koff came out at 0.000937 s⁻¹; the on-rate (kon) (as a rule, the second-order rate constant of association) was found to be 317000 M⁻¹ s⁻¹.

Values taken from US20230218743A1.
